The values below come from PMC4114019.

The stoichiometry N is the number of molecules, sites or subunits per partner or assembly.

The target of this assay is T1, Purified FLAG-IKKε protein, Q14164.
T1 chain: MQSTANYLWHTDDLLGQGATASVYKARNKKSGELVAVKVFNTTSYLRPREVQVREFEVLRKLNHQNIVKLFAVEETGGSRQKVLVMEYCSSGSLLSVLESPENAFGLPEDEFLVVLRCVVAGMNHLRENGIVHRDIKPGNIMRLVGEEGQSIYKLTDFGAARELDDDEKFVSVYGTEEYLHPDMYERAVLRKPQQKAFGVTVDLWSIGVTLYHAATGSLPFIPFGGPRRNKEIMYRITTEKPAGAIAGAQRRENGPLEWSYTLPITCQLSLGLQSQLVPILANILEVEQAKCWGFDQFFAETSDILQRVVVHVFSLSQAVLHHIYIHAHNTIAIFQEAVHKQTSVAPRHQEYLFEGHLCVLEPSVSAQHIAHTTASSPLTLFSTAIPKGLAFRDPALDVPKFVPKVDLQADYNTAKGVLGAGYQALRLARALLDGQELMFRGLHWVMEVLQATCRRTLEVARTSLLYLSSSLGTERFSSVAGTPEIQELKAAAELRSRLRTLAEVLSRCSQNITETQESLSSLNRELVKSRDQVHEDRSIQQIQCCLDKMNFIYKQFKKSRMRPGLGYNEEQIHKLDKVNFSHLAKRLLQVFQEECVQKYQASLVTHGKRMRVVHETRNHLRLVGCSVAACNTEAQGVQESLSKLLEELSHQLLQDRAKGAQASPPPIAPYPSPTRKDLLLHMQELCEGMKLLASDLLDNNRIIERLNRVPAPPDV
Description: native gel or EMSA. Particulars: remark: other sources report otherwise. On the technique in general: A gel shift assay detects complexes by their altered migration in electrophoresis.

B1: Purified FLAG-IKKε protein, Q14164 1-716 (enzyme)
chain: T1 chain
Molecule B1 displayed a stoichiometry N of 2.
